Test results as given in patent publication US20080248008A1, “Inhibitors of Protein Kinase a Anchoring” (priority 2004, published 2008).

Key:
[1] = molecular target: T1, RII (Homo sapiens, UniProt P13861); test: Co-immunoprecipitation with RII in transfected HEK293 cells; format: cell-based; conditions: HEK293 cells transfected with GFP-fusion constructs
T1 construct: endogenous in cells; host or cells: HEK293
Protocol: HEK293 cells at […] were transfected with ten μg of plasmid DNA (GFP, GFP-MEME3 or GFP-Scrambled MEME3) by using the CaCl2 method. Cells were lysed after 30 hours in lysis buffer (20 mM Hepes, pH 7.5/150 mM NaCl/1 mM EDTA/1% Triton X-100) with protease inhibitors (Complete Mini, EDTA-free tablets, Roche).
Immunoblot analysis. Immunocomplexes and lipid raft fractions were analysed on a 10, 15% or 4-20% PAGE and blotted onto PVDF membranes. The filters were blocked in 5% non-fat dry milk in TBST for 30 minutes at RT, incubated 1 hour at RT (or overnight at 4° C.) with primary antibodies, washed four times 5 minutes in TBST with 0.1% Tween-20 and incubated with a horseradish-peroxidase-conjugated secondary antibody. Blots were developed by using Supersignal West Dura Extended Duration Substrate or Supersignal West Pico substrate (Pierce).
Antibodies. RI or RII were immunoprecipitated with polyclonal antibodies against human RI or human RII at a 3 μg/ml dilution (Santa Cruz Biotechnology). MEME3 or scrambled peptide was immunoprecipitated with 1.5 μl of anti-GFP antiserum (Invitrogen). […]
Immunocomplexes were analysed on 10% PAGE (B and C) or 15% PAGE (D) and subjected to Western blotting using anti-GFP, anti-RI or anti-RII as indicated and blotted onto PVDF membranes. […]

[2] = molecular target: T2, RIα (Bos taurus, UniProt P00514); test: Fluorescence polarization, dissociation constant for RI; format: binding, bovine; conditions: qualitative
T2 construct: made in house; host or cells: E. coli BL21 (B121 [sic])
T2 sequence (P00514 whole entry): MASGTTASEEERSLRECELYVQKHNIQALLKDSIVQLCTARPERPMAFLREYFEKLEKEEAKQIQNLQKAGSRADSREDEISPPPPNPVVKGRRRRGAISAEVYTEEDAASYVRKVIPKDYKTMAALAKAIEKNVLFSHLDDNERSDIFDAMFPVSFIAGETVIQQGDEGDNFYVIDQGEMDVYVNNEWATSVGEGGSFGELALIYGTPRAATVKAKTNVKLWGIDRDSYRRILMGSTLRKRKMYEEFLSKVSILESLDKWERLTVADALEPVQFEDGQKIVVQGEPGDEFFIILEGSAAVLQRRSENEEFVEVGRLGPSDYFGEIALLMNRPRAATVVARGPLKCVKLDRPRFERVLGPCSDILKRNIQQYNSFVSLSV
Protocol: Fluorescence Polarization. FITC-labeled peptides (SynPep, San Diego) that were used for fluorescence polarization studies included MEME3 (LEQYANQLADQIIKEATEK(5-Carboxyfluorescein)-CONH2) and MEME3 scrambled peptide (IEKELAQQYQNADAITLEK(5-Carboxyfluorescein)-CONH2). Peptides (0.5 nM for RI experiments and 1 nM for RII experiments) were suspended to working dilutions in phosphate-buffered saline containing 5 μg/μl BSA, pH 7.0. Increasing concentrations of recombinant bovine RI wt or recombinant murine RII were added to a PBS solution and mixed with each FITC-labeled peptide. Each sample was incubated for 2.5 hours. Fluorescence polarization was measured on a Beacon 2000 (Panvera, Madison, Wis.), following the manufacturer's instructions. Saturation binding curves were generated with PRISM graphing software (GraphPad, San Diego). Dissociation constants (Kd) were calculated from the nonlinear regression curve from averages of minimum three individual experiments.
Protein expression and purification. Human RI, Bovine RI and N-terminal deletions thereof or murine RII was expressed in E. coli B121 by IPTG induction. The RI containing pellet was incubated in lysis buffer (10 mM MOPS, pH 6.5, 100 mM NaCl, 10 μM DTT added protease inhibitors) and sonicated (Branson Sonifier 250) for 1 minute in three intervals at 0° C. […]

[3] = molecular target: T3, PKA-RIIα (Mus musculus, UniProt P12367); test: Solid phase immobilization from Y-1 adrenal cell lysate, PKA-RIIα; format: binding; conditions: overnight
T3 construct: host or cells: mouse Y-1 adrenocortical cells (lysate)
T3 sequence (P12367 whole entry): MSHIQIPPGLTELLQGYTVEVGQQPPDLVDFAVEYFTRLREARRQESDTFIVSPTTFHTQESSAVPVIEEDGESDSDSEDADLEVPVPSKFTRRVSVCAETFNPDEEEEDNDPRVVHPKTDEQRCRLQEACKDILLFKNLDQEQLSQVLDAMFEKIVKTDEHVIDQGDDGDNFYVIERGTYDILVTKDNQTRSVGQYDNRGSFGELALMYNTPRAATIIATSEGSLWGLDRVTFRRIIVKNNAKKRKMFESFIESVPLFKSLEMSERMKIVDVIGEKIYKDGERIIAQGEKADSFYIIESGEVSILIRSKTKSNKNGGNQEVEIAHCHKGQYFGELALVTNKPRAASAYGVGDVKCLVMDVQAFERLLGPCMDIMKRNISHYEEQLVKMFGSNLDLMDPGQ
Protocol: (§1) Solid phase assay and cell lysate. 5×10^6 Y1 cells or 20×10^6 Jurkat T cells lysed in 150 mM NaCl, 1% NP-40, 0.5% deoxycholate, 0.1% SDS and 50 mM Tris HCl (7.8) were incubated overnight at 4° C. with MEME3 and SM3 peptides synthesized on membranes (Autospot, Intavis, AG). The membranes were washed two times for 10 minutes in lysis buffer and thereafter in high salt lysis buffer (1 M NaCl) before boiling in SDS-PAGE loading buffer.
A solid phase immobilization assay (schematic illustration in FIG. 24, left panel) was used to analyse endogenous PKA binding to MEME3. MEME3 and SM3 peptides synthesized in triplicate on membranes were incubated overnight in lysate from Y-1 adrenal cells. Thereafter bound proteins were eluted, subjected to 10% PAGE and analysed by immunoblotting using specific antibodies against PKA-RIα, PKA-C and PKA-RIIα subunits.

[4] = molecular target: PKA-RIα (Homo sapiens, UniProt P10644); test: Solid phase pull down from T cell lysate, PKA-RIα; format: binding; set-up: endogenous in cells; host or cells: Jurkat T cells; conditions: overnight
Protocol: as §1
Solid phase pull down (see schematic illustration in FIG. 24A, left panel) was performed to analyse endogenous PKA binding to MEME3. MEME3 and SM3 peptides synthesized in triplicate on membranes were incubated overnight in T cell lysate, thereafter bound proteins were eluted, subjected to 10% PAGE electrophoresis and analysed by immunoblotting (FIG. 11). The presence of PKA subunits was assessed by immunoblotting using specific antibodies against PKA-RIα and PKA-RIIα subunits.

T1 sequence (P13861 whole entry, the tested form may be a part): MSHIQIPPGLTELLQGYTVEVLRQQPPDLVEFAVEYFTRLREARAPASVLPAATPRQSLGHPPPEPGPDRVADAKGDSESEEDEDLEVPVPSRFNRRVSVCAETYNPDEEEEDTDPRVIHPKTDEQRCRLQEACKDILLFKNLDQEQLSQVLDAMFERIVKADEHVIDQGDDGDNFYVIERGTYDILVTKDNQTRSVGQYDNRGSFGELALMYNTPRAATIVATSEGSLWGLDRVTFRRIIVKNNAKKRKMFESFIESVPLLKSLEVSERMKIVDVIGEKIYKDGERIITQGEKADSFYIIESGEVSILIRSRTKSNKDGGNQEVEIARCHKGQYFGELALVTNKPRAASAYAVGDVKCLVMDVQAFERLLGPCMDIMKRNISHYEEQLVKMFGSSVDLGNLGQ

| interaction with RI subunit [2] | interaction with RI subunit ([2]; listed as control peptide) | immobilization of PKA-RIα [4] | Compound | co-precipitation with RII [1] | immobilization of PKA-RIIα [3] |
| --- | --- | --- | --- | --- | --- |
| – | – | – | CC[C@H](C)[C@H](NC(=O)[C@H](CCC(N)=O)NC(=O)[C@H](CC(=O)O)NC(=O)[C@H](C)NC(=O)[C@H](CC(C)C)NC(=O)[C@H](CCC(N)=O)NC(=O)[C@H](CC(N)=O)NC(=O)[C@H](C)NC(=O)[C@H](Cc1ccc(O)cc1)NC(=O)[C@H](CCC(N)=O)NC(=O)[C@H](CCC(=O)O)NC(=O)[C@@H](N)CC(C)C)C(=O)N[C@H](C(=O)N[C@@H](CCCCN)C(=O)N[C@@H](CCC(=O)O)C(=O)N[C@@H](C)C(=O)N[C@H](C(=O)N[C@@H](CCC(=O)O)C(=O)N[C@@H](CCCCNC(=O)c1ccc2c(c1)C(=O)OC21c2ccc(O)cc2Oc2cc(O)ccc21)C(N)=O)[C@@H](C)O)[C@@H](C)CC [MEME3] | not with RII | – |
| No RIα binding | did not interact with either R subunit | Neither PKA-RIα nor PKA-RIIα bound | IEKELAQQYQNADAITLE [SM3, scrambled MEME3 negative control peptide, reference compound] | – | Neither PKA-RIα, PKA-C nor PKA-RIIα were immobilized |
